Assay results published in patent US20240043504A1.

Tests used:
[1] = molecular target: SARS-CoV-2 spike protein on VSV-SARS-CoV-2-S pseudovirus (SARS-CoV-2) (UniProt P0DTC2); assay: cell-based or functional assay
[2] = molecular target: human FcγR3a 176Val allotype receptor (human) (UniProt P08637); assay: cell-based or functional assay
[3] = molecular target: SARS-CoV-2 spike protein (S-wt, Wuhan-Hu-1, NCBI Accession Number MN908947.3) on VSV pseudoparticles (SARS-CoV-2) (UniProt P0DTC2); assay: cell-based or functional assay
[4] = molecular target: MOD10-SARS-CoV-2 Spike Protein (RBD)(R319-F541).mmH (SARS-CoV-2); assay: Luminex beads, supernatant
[5] = molecular target: MOD11-SARS-CoV-2 Spike Protein (RBD)(R319-F541).mmH (SARS-CoV-2); assay: Luminex beads, supernatant
[6] = molecular target: MOD12-SARS-CoV-2 Spike Protein (RBD)(R319-F541).mmH (SARS-CoV-2); assay: Luminex beads, supernatant
[7] = molecular target: MOD14-SARS-CoV-2 Spike Protein (RBD)(R319-F541).mmH (SARS-CoV-2); assay: Luminex beads, supernatant
[8] = molecular target: MOD15-SARS-CoV-2 Spike Protein (RBD)(R319-F541).mmH (SARS-CoV-2); assay: Luminex beads, supernatant
[9] = molecular target: MOD2-SARS-CoV-2 Spike Protein (RBD)(R319-F541).mmH (SARS-CoV-2); assay: Luminex beads, supernatant
[10] = molecular target: MOD3-SARS-CoV-2 Spike Protein (RBD)(R319-F541).mmH (SARS-CoV-2); assay: Luminex beads, supernatant
[11] = molecular target: MOD4-SARS-CoV-2 Spike Protein (RBD)(R319-F541).mmH (SARS-CoV-2); assay: Luminex beads, supernatant
[12] = molecular target: MOD5-SARS-CoV-2 Spike Protein (RBD)(R319-F541).mmH (SARS-CoV-2); assay: Luminex beads, supernatant
[13] = molecular target: MOD6-SARS-CoV-2 Spike Protein (RBD)(R319-F541).mmH (SARS-CoV-2); assay: Luminex beads, supernatant
[14] = molecular target: MOD7-SARS-CoV-2 Spike Protein (RBD)(R319-F541).mmH (SARS-CoV-2); assay: Luminex beads, supernatant
[15] = molecular target: MOD8-SARS-CoV-2 Spike Protein (RBD)(R319-F541).mmH (SARS-CoV-2); assay: Luminex beads, supernatant
[16] = molecular target: MOD9-SARS-CoV-2 Spike Protein (RBD)(R319-F541).mmH (SARS-CoV-2); assay: Luminex beads, supernatant
[17] = molecular target: Bt-MERS.hFc (mAb2664-L2) (MERS-CoV) (UniProt K9N5Q8); assay: Luminex bead binding, supernatant
[18] = molecular target: MERS.hFc (mAb2664-L1) (MERS-CoV) (UniProt K9N5Q8); assay: Luminex bead binding, supernatant
[19] = molecular target: MERS.mFc (mAb2663-L1) (MERS-CoV) (UniProt K9N5Q8); assay: Luminex bead binding, supernatant
[20] = molecular target: full-length SARS-CoV-2 spike protein (amino acids M1-T1273 of accession number YP_009724390.1) on Ju (SARS-CoV-2) (UniProt P0DTC2); assay: cell-based or functional assay
[21] = molecular target: SARS-CoV-2 spike protein, Wuhan-Hu-1 sequence (S-wt), on VSV pseudoparticles (SARS-CoV-2) (UniProt P0DTC2); assay: cell-based or functional assay
[22] = molecular target: MOD1-SARS-CoV-2 Spike Protein (RBD)(R319-F541).mmH (SARS-CoV-2); assay: Luminex beads, supernatant
[23] = molecular target: MOD13-SARS-CoV-2 Spike Protein (RBD)(R319-F541).mmH (SARS-CoV-2); assay: Luminex beads, supernatant

Chain of human FcγR3a 176Val allotype receptor (human) (P08637 17-254 F176V): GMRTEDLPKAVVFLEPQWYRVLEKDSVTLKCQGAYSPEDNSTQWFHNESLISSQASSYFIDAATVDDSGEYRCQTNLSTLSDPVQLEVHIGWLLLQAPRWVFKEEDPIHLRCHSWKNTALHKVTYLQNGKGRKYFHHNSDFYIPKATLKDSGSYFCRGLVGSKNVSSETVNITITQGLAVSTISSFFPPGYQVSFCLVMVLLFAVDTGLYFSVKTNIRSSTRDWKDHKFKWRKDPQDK

Substance: mAb10933 (antibody)
- Neutralization (1:100 dilution) [1]: 88.4%
- ADCC (Activity (%) (of positive control)) [2]: 68.5%
- ADCC Mean RLU (surrogate reporter assay, spike-expressing target cells) [2]: 9740 RLU

Substance: mAb10989 (antibody)
- IC50 (M), neutralization [3]: 7.23e-12 M
- Neutralization (1:4 dilution) [1]: 100%
- Neutralization (1:20 dilution) [1]: 99.8%
- Neutralization (1:100 dilution) [1]: 98.2%
- ADCC (Activity (%) (of positive control)) [2]: 21.5%
- ADCC Mean RLU (surrogate reporter assay, spike-expressing target cells) [2]: 10200 RLU
- Binding signal (MFI) [4]: 15500 MFI
- Binding signal (MFI) [5]: 16800 MFI
- Binding signal (MFI) [6]: 15100 MFI
- Binding signal (MFI) [7]: 18100 MFI
- Binding signal (MFI) [8]: 15900 MFI
- Binding signal (MFI) [9]: 16700 MFI
- Binding signal (MFI) [10]: 18300 MFI
- Binding signal (MFI) [11]: 15800 MFI
- Binding signal (MFI) [12]: 3370 MFI
- Binding signal (MFI) [13]: 19600 MFI
- Binding signal (MFI) [14]: 15200 MFI
- Binding signal (MFI) [15]: 6140 MFI
- Binding signal (MFI) [16]: 17800 MFI
- Binding signal (MFI) [17]: 186 MFI
- Binding signal (MFI) [18]: 206 MFI
- Binding signal (MFI) [19]: 161 MFI

Substance: IgG1 Isotype Control (antibody)
- ADCP Max (% ADCP), Jurkat/hCD20/SARS-CoV-2 Spike cells [20]: 10.4%

Substance: mAb10987 (antibody)
- IC50 (M), neutralization [3]: 4.06e-11 M
- Neutralization (1:4 dilution) [1]: 99.3%
- Neutralization (1:20 dilution) [1]: 97.7%
- Neutralization (1:100 dilution) [1]: 94.6%
- Relative neutralization (5 µg/ml, Vero cells) [21]: 100%
- ADCC (Activity (%) (of positive control)) [2]: 29.4%
- ADCC Mean RLU (surrogate reporter assay, spike-expressing target cells) [2]: 12000 RLU
- Binding signal (MFI) [17]: 172 MFI
- Binding signal (MFI) [18]: 235 MFI
- Binding signal (MFI) [19]: 196 MFI

Substance: mAb10934 (antibody)
- ADCC Mean RLU (surrogate reporter assay, spike-expressing target cells) [2]: 11700 RLU
- Binding signal (MFI) [22]: 81 MFI
- Binding signal (MFI) [4]: 30400 MFI
- Binding signal (MFI) [5]: 30700 MFI
- Binding signal (MFI) [6]: 32900 MFI
- Binding signal (MFI) [23]: 30500 MFI
- Binding signal (MFI) [7]: 28600 MFI
- Binding signal (MFI) [8]: 27800 MFI
- Binding signal (MFI) [9]: 27700 MFI
- Binding signal (MFI) [10]: 25100 MFI
- Binding signal (MFI) [11]: 31700 MFI
- Binding signal (MFI) [12]: 6650 MFI
- Binding signal (MFI) [13]: 30800 MFI
- Binding signal (MFI) [14]: 29900 MFI
- Binding signal (MFI) [15]: 6410 MFI
- Binding signal (MFI) [16]: 31300 MFI
